The values below come from paper PMC9365860 (Cell Reports, 2022).

This assay has as its target Recombinant stabilized SARS-CoV-2 spike for ELISA (Wuhan) (SARS-CoV-2, Wuhan, UniProt P0DTC2, stabilised). Put plainly: ELISA. The conditions noted are these: both partners purified.

B1: P008_60 IgG (antibody, V domains shown)
VH: EVQLVESGGGVVQPGRSLRLTCAASGFIFSSYGMHWVRQAPGKGLEWVAVISYDGSYKYYADSVKGRFTISRDNSKNTLYLQMNSLRAEDTAVYYCTKADYYDFWSGYQKTYYYYMDVWGKGTTVTISS
VL: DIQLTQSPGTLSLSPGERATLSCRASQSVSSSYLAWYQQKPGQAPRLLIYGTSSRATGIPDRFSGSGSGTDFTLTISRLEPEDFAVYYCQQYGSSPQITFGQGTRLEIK
notes: also called mAb P008_60; P008_060; source: HEK-293F, co-transfected heavy and light plasmids, purified (protein G)
Consider B1, for which the binding result is “binds”.
